# Data taken from patent publication US20210261685A1 (Alector, published 2021).
# Where a chain is given by its changes, count along the chain named.
# T1: cyno MerTK extracellular domain (ECD), recombinant (cynomolgus monkey, UniProt Q12866 21-505 (human entry))
# T1 construct: also called cynomolgus MerTK; not shown: polyHis tag or TEVS/Thrombin/murine IgG2a Fc tag
# T1 chain: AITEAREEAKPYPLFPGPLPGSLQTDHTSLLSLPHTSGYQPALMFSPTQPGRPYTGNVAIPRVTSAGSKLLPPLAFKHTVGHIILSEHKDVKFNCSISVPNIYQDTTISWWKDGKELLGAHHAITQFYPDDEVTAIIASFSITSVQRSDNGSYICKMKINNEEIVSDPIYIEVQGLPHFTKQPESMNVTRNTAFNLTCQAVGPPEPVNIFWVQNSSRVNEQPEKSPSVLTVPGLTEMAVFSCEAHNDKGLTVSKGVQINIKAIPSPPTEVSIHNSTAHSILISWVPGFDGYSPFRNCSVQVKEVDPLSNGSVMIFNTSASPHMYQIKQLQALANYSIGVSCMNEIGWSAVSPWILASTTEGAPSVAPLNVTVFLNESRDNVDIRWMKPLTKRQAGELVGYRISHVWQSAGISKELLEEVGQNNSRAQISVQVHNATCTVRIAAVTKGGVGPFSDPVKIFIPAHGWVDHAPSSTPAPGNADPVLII
# T2: Recombinant human MerTK human Fc Chimera protein (R&D systems, Cat #391-MR-100) (human, UniProt Q12866 26-499, limits assumed)
# T2 construct: Bought; also called recombinant human MerTK protein; MerTK-Fc
# T2 sequence: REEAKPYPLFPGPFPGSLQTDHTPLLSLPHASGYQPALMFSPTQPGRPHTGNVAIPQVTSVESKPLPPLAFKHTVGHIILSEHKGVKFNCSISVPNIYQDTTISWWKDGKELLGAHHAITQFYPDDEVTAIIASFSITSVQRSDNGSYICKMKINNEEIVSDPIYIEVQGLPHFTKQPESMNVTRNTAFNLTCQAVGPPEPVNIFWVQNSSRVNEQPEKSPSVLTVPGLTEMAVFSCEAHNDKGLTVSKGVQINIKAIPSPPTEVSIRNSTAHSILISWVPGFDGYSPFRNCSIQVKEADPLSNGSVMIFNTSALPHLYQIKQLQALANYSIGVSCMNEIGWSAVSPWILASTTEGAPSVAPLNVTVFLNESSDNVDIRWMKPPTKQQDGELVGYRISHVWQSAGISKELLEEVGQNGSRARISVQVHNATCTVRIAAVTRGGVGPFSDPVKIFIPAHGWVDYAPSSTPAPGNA
# B1: MTK-10 (antibody, human IgG1, V domains shown)
# VH: QVTLKESGPGILQPSQTLSLTCSFSGFSLTTSGMGVGWIRQPSGKGLEWLAHIWSDDDKRSNPALKSRLTISQDSSTNQVFLKIASVDTADSATYYCSHLTPVREFAYWGPGTLVTVSE
# VL: DIQMTQTTSSLSASLGDRVTISCSASQGISNYLNWFQQKPDGTVKLLIYYTSRLHSGVPSRFSGSGSGTDFSLTISNLEPEDIATYYCQQYTKLPYTFGGGTKLEIK
# B2: MTK-24 (antibody, human IgG1, V domains shown)
# VH: QVQLQQPGAELVKPGASVKLSCKASGYTFTSYWMHWVKQRPGQGLEWIGMIHPNINTNYNEKFKSKATLTVDISSSTAYMQLSSLTSEDSAVYYCAKRSPYSNYDWYFDVWGTGTTVTVSS
# VL: DIQMTQSPASLSVSVGETVTITCRASENIYSNLAWYQQKQGKSPQLLVYAATNLADGVPSRFSGSGSGTQYSLKINSLQSEDFGSYYCQHFWGTPLTFGAGTKLELK
# B3: MTK-28 (antibody, human IgG1, V domains shown)
# VH: QIQLVQSGPELKKPGETVKISCKASGYTFTTYGMSWVKQAPGKGLKWMGWINTYSGVPTYADDFKGRFAFSLETSASTAYLQINTLKNEDTTTYFCARFLRYYYFDYWGQGTTLTVSS
# VL: QIVLSQSPVILSASPGEKVTMTCRASSSVTYMHWYQQQPGSSPKPWIYATSNLASGVPARFSGSGSGTSYSLTISRVETEDAATYYCHQWSGNPTFGGGTKLEIN
# B4: MTK-30 (antibody, human IgG1, V domains shown)
# VH: QVQLQQPGTELVRPGASVKLSCKASGYTFTSYWMHWVKQRPGQGLEWIGNLNPNNGGTYYNEKFKSKATLTVDKSSSTAYMQLSSLTSEDSAVYYCARQILLYFDYWGQGTTLTVSS
# VL: DVLMTQTPLSLPVSLGDQASISCRSSQSIVHSNGDTYLEWYLQKPGQSPKLLIYKVSNRFSGVPDRFSGSGSGTDFTLKISRVEAEDLGVYYCFQGSHVPWTFGGGTKLEIK
# B5: MTK-15 (antibody, human IgG1, V domains shown)
# VH: QIQLVQSGPELKKPGETVKISCKASGYTFTNYGVHWVKQAPGKGLKWMGWINTYTGEPTYADDFKGRFAFSLETSASTAYLQINNLKNEDMATYFCARGNRYAYMDYWGQGTSVTVSS
# VL: QIVLSQSPAILSASPGEKVTMTCRASSSVSYMHWYQQKSGSSPKPWIYATSNLASGVPARFSGSGSGTSYSLTISRVEAEDAATYYCQQWSSNPRTFGGGTKLEIK
# B6: MTK-06 (antibody, human IgG1, V domains shown)
# VH: QIQLVQSGPELKKPGETVKISCKASGYTFTNYGMNWVKQAPGKGLKWMGWINTNTGEPTYAEEFKGRFAFSLETSASTAYLQINNLKNEDTATYFCARYYNYWYFDVWGAGTTVTVSS
# VL: B5 VL with S39P, N93K, R95P
# B7: MTK-32 (antibody, human IgG1, V domains shown)
# VH: QIQLVQSGPELKKPGETVKISCKASGYTFTSYGMSWVHQAPGKGLKWLGWINTYSGVPTYADDFRGRFAFSLDTSVSTASLEINNLQNEDTATYFCAREDNWAWFAYWGQGTLVTVST
# VL: B5 VL with S26T, S30G, Q37R, S39P
# B8: MTK-12 (antibody, human IgG1, V domains shown)
# VH: QVQLQQSGPQLVRPGASVKISCKASGYSFTSHWMHWVKQRPGQGLEWIGMIDPSDGESRLNQKFKDKATLTVDKSSSTAYMQLSSPTFEDSAVYYCARGIYYYGITYAMDYWGQGTSVTVSS
# VL: QIVLTQSPAIMSASPGEKVTMTCSASSSVSYMYWYQQKPRSSPRLLIYDTSNLASGVPVRFSGSGSGTSYSLTISRMEAEDAATYYCQQWSSYPLTFGAGTKLELK
# B9: MTK-16 (antibody, human IgG1, V domains shown)
# VH: LIQLVQSGPELKKPGETVKISCKASGYTFTNHGMNWVKQDPGKGLKWMGWINTYTGEPTYADDFKGRFVFSMETSASAAFLQINNLKNEDTATYFCARKGVTAARYFDYWGQGTTLTVSS
# VL: DIVMTQSPKFMSTSVGDRVSITCKASQNVRTAVAWYKKKPGQSPKALINLASNRHTGVPDRFTGSGSGTDFTLTISNVQSEDLADYFCLQHWNYPLTFGGGTKLEIK
# B10: MTK-27 (antibody, human IgG1, V domains shown)
# VH: EVQLQQSGTELVRPGASVKLSCTASGFNIKDDYMHWVQQRPEQGLEWIGWIDPENGNTEYASKFQGKATITADASSNTAYLQLSSLTSEDTAVYYCSTLFSNYFDYWGQGTTLTVSS
# VL: B9 VL with P8Q, A32S, K37Q, K38Q, N49Y, Q79R, L96Y
# B11: MTK-13 (antibody, human IgG1, V domains shown)
# VH: DVQLQESGPGLVKPSQSLSLTCSVTGYSITSGYYWNWIRQFPGNKLEWMGNIDYDGSNKYNPSLKNRISITRDTSKNHFFLKLNSVTPEDTATYFCARDGGNYRSFAYWGQGTLVTVSA
# VL: QIVLTQSPPIMSASPGEKVTITCSASSSVSYMYWFQQKPGTSPKLWIYSTFNLASGVPARFSGSGSGTSYSLTISRMEAEDVATYYCQQRSSYPFTFGSGTKLEIK
# B12: MTK-26 (antibody, human IgG1, V domains shown)
# VH: AVQFQESGPGLVKLSQSLSLTCSVTGYSITSGYYWDWIRQFPGNKLEWMGYISYDGSNNYNPSLKNRISITRDTSKNQFFLKLNSVTTEDTATYYCAREGGYYRSMDYWGQGTSVTVSS
# VL: B11 VL with P9A, T22A, Y31F, Y33H, K44R, F51S, V82A
# B13: MTK-11 (antibody, human IgG1, V domains shown)
# VH: QVQLKQSGPGLVQPSQSLSITCTVSGFSLTDYGVHWVRQSPGKGLEWLGVIWSSGTTDYNEAFISRLSISKDNSKSHVFFKMNSLQAIDTAIYYCARKGHDPYAMDYWGQGTSVTVSS
# VL: QIVLTQSPAIMSASLGERVTMTCTASSSISSSYFHWYQQKPGSSPKLWIYSTSNLPSGVPARFSGSGSGTSYSLTISSMEAEDAATYYCHQYYRSPLTFGAGTKLELK
# B14: MTK-35 (antibody, human IgG1, V domains shown)
# VH: QVLLQQSGPELVKPGASVQLSCKASDYTFTSYDIHWVKQRPGQGLEWIGWIYPRDGYTKYNEIFKGKATLTVDTSSTTAYMELHSLTSEDSAVYFCARAYYTNWYYFDYWGQGTTLTVSS
# VL: EIVLTQSPTTMAASPGEKITITCRASSSISSHYLHWYQQKPGFSPKLLIYRTSNLASGVPARFSGSGSGTSYSLTIGTMEAEDVATYYCQQGSTIPLTFGAGTKLVLK
# Biological target: T1, cyno MerTK extracellular domain (ECD), …
# Test: SPR, Carterra LSA, antibody immobilised
# Description: Binding kinetics of human anti-MerTK IgG1 LALAPS antibodies of the present disclosure to human, cyno, and murine MerTK were evaluated using a Carterra LSA instrument (Carterra, Salt Lake City, Utah). Briefly, anti-MerTK antibodies were prepared by diluting to 10 μg/ml in 10 mM Acetate, pH 4.25 (Carterra), at 300 μl/well. A HC200M sensor chip (Carterra) was activated using the single channel flow cell with a 7-minute injection of a 1:1:1 mixture of 100 mM MES pH 5.5, 100 mM sulfo-NHS, 400 mM EDC (all reconstituted in MES pH 5.5; 100 μl of each mixed in vial immediately before running assay). After switching to the multi-channel array flow cell, the antibodies were injected over the activated chip in a 96-spot array for 15 minutes. The remaining unconjugated active groups on the chip were then blocked by injecting 1M Ethanolamine pH 8.5 (Carterra) for 7 minutes using the single channel flow cell.
# After priming with running buffer (HBS-TE, Carterra) with 0.5 mg/ml BSA (Sigma), the immobilized anti-MerTK antibodies were tested for their ability to bind to several forms of recombinant MerTK extracellular domain, including human, cynomolgus, and mouse orthologs as described above. Estimates of affinity were generated by injecting each analyte over the entire antibody array using the single channel flow cell. MerTK analytes were diluted to 33.3, 100, and 300 nM in running buffer, and injected in serial from lowest to highest concentration without regeneration. Two buffer blanks were run between each series (one species per series). Data were processed and analyzed using NextGenKIT high-throughput kinetics analysis software (Carterra).
# The equilibrium dissociation constants (KD) were then calculated from the fitted association and dissociation rate constants (k-on and k-off) for anti-MerTK antibodies of the present disclosure. Binding kinetic analysis was also performed on anti-MerTK antibodies H1 (BioLegend, Clone ID: 590H11G1E3), H2 (R&D systems, Clone ID: 125518), M6 (WO2016/106221), and CDX AB2000-A7 hIgG1 (WO2019/084307).
Kd [nM],binding result,Binder
1.9,,B1
44,,B2
4.5,,B3
24,,B4
3,,B5
17,,B6
107,,B7
,no binding (tested: 300 nM),B8
1.6,,B9
71,,B10
39,,B11
30,,B12
2.9,,B13
13,,B14

# Biological target: T2, Recombinant human MerTK human Fc …
# Test: competition ELISA, His-ProS on captured MerTK-Fc
# Summary of the method: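 MerTK-Fc (2 μg/ml) captured on plate-bound anti-human IgG was exposed to anti-MerTK antibodies (66.6 nM-4 pM final) together with His-Gas6 at 3 μg/ml or His-ProS at 20 μg/ml for 1 h. Bound ligand was detected with HRP-anti-His and TMB. IC50 (nM) was derived from OD450 dose-response curves.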
row,IC50 [nM],Binder
1,3.8,B1
2,0.579,B2
3,2.78,B3
4,1.57,B4
5,4.2,B5
6,2.17,B6
7,2.78,B7
8,3.36,B8
9,8.59,B9
10,2.54,B10
11,3.76,B11
12,1.2,B12
13,24.2,B13
14,0.924,B14
